Numbering of substitutions follows the chain as printed.
T1: ADAMTS5 (Homo sapiens, UniProt Q9UNA0)
T1 construct: purchased R&D systems
T1 sequence (Q9UNA0 262-930): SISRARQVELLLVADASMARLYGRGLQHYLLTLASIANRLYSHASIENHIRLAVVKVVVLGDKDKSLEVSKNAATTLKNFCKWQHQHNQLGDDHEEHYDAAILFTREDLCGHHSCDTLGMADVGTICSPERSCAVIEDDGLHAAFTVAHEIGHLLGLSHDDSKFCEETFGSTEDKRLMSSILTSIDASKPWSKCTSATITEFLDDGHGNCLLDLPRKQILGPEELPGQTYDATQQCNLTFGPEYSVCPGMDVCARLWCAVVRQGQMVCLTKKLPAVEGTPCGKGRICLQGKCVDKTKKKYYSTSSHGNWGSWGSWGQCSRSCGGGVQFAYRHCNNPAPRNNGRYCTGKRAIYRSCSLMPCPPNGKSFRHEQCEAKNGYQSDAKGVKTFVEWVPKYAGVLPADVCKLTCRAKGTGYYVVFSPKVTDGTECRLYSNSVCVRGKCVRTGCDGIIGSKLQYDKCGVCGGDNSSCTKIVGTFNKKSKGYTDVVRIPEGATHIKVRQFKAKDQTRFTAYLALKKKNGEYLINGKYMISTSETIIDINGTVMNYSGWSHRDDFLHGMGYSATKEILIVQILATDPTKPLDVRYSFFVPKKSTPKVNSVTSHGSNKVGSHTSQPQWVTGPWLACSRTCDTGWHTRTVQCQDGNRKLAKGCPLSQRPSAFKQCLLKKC

B1: 19 (nucleic acid)
chain: GGGACAUGCGUAACUUGAUAGGGGCCUCCACAGCUGAUAAGCUUGGACUCAAACCAUCAAGUCCAGAUCGAGCA
modifications: aptamer; 2'-fluoro at CU, RNA at AG, backbone not given here
B2: 16 (nucleic acid)
chain: B1 chain with A30G, A39C, U44C
modifications: aptamer; 2'-fluoro at CU, RNA at AG, backbone not given here
B3: 25 (nucleic acid)
chain: B1 chain with U16G, G17C, G36A, A37U, A39C, U49A, C58G, A59C
modifications: aptamer; 2'-fluoro at CU, RNA at AG, backbone not given here
B4: 22 (nucleic acid)
chain: B1 chain with U16G, G17C, G36A, A37U, A39C, U49A, C58G, A59C
modifications: aptamer; 2'-fluoro at CU, RNA at AG, backbone not given here
B5: 24 (nucleic acid)
chain: B1 chain with U35C, A37G, A40G
modifications: aptamer; 2'-fluoro at CU, RNA at AG, backbone not given here
B6: 18 (nucleic acid)
chain: B1 chain with U16G, G17C, A20C, A30G, A37U, U44C, C58G, A59C
modifications: aptamer; 2'-fluoro at CU, RNA at AG, backbone not given here
B7: 17 (nucleic acid)
chain: B1 chain with U16G, G17U, U38A, C58A, A59C
modifications: aptamer; 2'-fluoro at CU, RNA at AG, backbone not given here
B8: 23 (nucleic acid)
chain: B1 chain with U16G, G17U, U38A, C58A, A59C
modifications: aptamer; 2'-fluoro at CU, RNA at AG, backbone not given here
B9: 21 (nucleic acid)
chain: GGGACAUGCGUAACUAUAUAGGGGCCUCCACAGCUGUAAAGCUUGGACUUAAACCAUAUAGAGUCCAGAUCGAGCA
modifications: 2'-fluoro at CU, RNA at AG, backbone not given here
B10: 20 (nucleic acid)
chain: GGGACAUGCGUAACUGUAUAGGGGCCUCCGCAGCUAUUCAGCUCGGACAUAAACCAUACAGUCCAGAUCGAGCA
modifications: aptamer; 2'-fluoro at CU, RNA at AG, backbone not given here

What follows are molecules tested against T1, ADAMTS5 (assay: binding activity to ADAMTS5 by surface plasmon resonance (Biacore T100)). Settings: Table 7.
Procedure: The binding activity of aptamers having the nucleotide sequences shown in SEQ ID NOs: 1 and 2 to ADAMTS5 was evaluated by the surface plasmon resonance method. Biacore T100 manufactured by GE Healthcare was used for the measurement. The SA chip was used as the sensor chip, which had streptavidin immobilized thereon. About 800 RU of a 16-nucleotide Poly dT with biotin at the 5′-terminal was bound on the chip. […] ADAMTS5 for analyte was prepared at 0.1 μM, and injected at a flow rate of 30 μL/min for 60 sec. As the running buffer, solution C was used. The solution C is a mixed solution of 300 mM sodium chloride, 5.4 mM potassium chloride, 1.8 mM calcium chloride, 0.8 mM magnesium chloride, 20 mM tris (pH 7.6), and 0.05% Tween20.
SEQ ID NO: 2 has a sequence with one base deletion from the continuous 4 G bases in the consensus sequence, and it was shown from the measurement results of the binding activity that the continuous 4 G bases in the consensus sequence are important for the activity of aptamers. Sensorgram showing the binding of an aptamer having the nucleotide sequence shown in SEQ ID NO: 1 to ADAMTS5 is presented in FIG. 2. In Table 1, “++” indicates those with the proportion of ADAMTS5 binding amount (RU value) to the amount of aptamer immobilized on the SA chip (RU value) of not less than 40%, “+” indicates those with the proportion of not less than 10% and less than 40%, and “−” indicates those with the proportion of less than 10%.
The binding activity and enzyme inhibitory activity of aptamers having nucleotide sequences shown in SEQ ID NOs: 16-25 to ADAMTS5 were measured. The binding activity was evaluated by the surface plasmon resonance method. For the measurement, a method similar to that in Example 1 was used. The enzyme inhibitory activity was measured by a method similar to that in Example 1. […] The negative control nucleic acid refers to the nucleic acid pool used in the first round of the SELEX method. The “++” indicates those with the proportion of ADAMTS5 binding amount (RU value) to the amount of aptamer immobilized on the SA chip (RU value) of not less than 40%, and “+” indicates those with the proportion of less than 40%. […] “n.d.” means not determined.
The binding activity of the nucleic acids shown in SEQ ID NOs: 30-45 to ADAMTS5 was measured. The binding activity was evaluated by the surface plasmon resonance method. In the Table, “++” indicates those with the proportion of ADAMTS5 binding amount (RU value) to the amount of aptamer immobilized on the SA chip (RU value) of not less than 40%, “+” indicates those with the proportion of not less than 10% and less than 40%, and “−” indicates those with the proportion of less than 10%.
In the case of B1, the binding activity is reported as “+ (proportion of less than 40%)”. For B2, the binding activity was “+ (proportion of less than 40%)”. With B3 the binding activity was “++ (proportion of ADAMTS5 binding amount (RU value) to the amount of aptamer immobilized on the SA chip (RU value) of not less than 40%)”. For B4, the binding activity was “++ (proportion of ADAMTS5 binding amount (RU value) to the amount of aptamer immobilized on the SA chip (RU value) of not less than 40%)”. In the case of B5, the binding activity is reported as “++ (proportion of ADAMTS5 binding amount (RU value) to the amount of aptamer immobilized on the SA chip (RU value) of not less than 40%)”. With B6 the binding activity was “+ (proportion of less than 40%)”. For B7, the binding activity was “+ (proportion of less than 40%)”. B8 was tested, and the binding activity was “++ (proportion of ADAMTS5 binding amount (RU value) to the amount of aptamer immobilized on the SA chip (RU value) of not less than 40%)”. With B9 the binding activity was “++ (proportion of ADAMTS5 binding amount (RU value) to the amount of aptamer immobilized on the SA chip (RU value) of not less than 40%)”. With B10 the binding activity was “+ (proportion of less than 40%)”.

What follows are molecules tested against T1, ADAMTS5 (assay: ADAMTS5 enzyme inhibition, aggrecan G1-IGD-G2 cleavage, SDS-PAGE detection (evaluation method 1)). Settings: Table 7; 10 nM aptamer.
Format: biochemical
Procedure: Whether an aptamer having the nucleotide sequence shown in SEQ ID NO: 1 inhibits the enzyme activity of ADAMTS5 was evaluated by the following method. As a substrate of ADAMTS5, the G1-IGD-G2 domain of aggrecan (manufactured by R&D systems) was used. ADAMTS5 specifically cleaves in between the 392nd glutamic acid and the 393rd alanine in the G1-IGD-G2 domain and produces two fragments. These fragments have faster electrophoretic mobility than uncleaved G1-IGD-G2. Thus, the enzyme activity of ADAMTS5 can be measured by quantifying the band intensity of G1-IGD-G2 by SDS-PAGE electrophoresis. The assay was performed in a solution A buffer with a reaction mixture volume of 10 μL. First, a mixture (10 μL) of a nucleic acid and ADAMTS5 was prepared and incubated at 25° C. for 15 min. To a substrate solution (5 μL) diluted with solution A was added a mixture (5 μL) of the nucleic acid and ADAMTS5 to start the enzyme reaction. The final concentration of ADAMTS5 in the reaction solution was 5 nM, and the final substrate concentration was 50 μg/mL. The reaction solution was incubated at 37° C. for 2 hr, 2 μL of solution D was added, and the mixture was heated at 95° C. for 2 min to stop the enzyme reaction of ADAMTS5. Solution D contains 0.25 M tris (pH 6.8), 10% SDS, 50% glycerol, 0.25% bromo phenolblue, and 20% 2-mercaptoethanol. The heat-treated reaction solution was electrophoresed by 7.5% SDS-PAGE and stained with SYPRO Orange (manufactured by Sigma-Aldrich). The staining was performed according to the manual of Sigma-Aldrich and detected using STORM840 manufactured by GE Healthcare. For analytical curves, uncleaved substrates 1000 ng, 400 ng, 160 ng, 64 ng, 25.6 ng, 10.24 ng, and 4.1 ng were electrophoresed, and staining and detection were performed in the same manner. The amount of uncleaved substrate in each reaction solution was quantified from the band intensity and the standard curve. The substrate cleavage efficiency of ADAMTS5 under these reaction conditions was 80-100%. The inhibition rate of the test substance was calculated using the following equation. inhibition rate (%)=(Sapt−SE)/(S0−SE)×100 wherein Sapt is the amount of an uncleaved substrate with the addition of a test substance, SE is the residual amount of an uncleaved substrate with the addition of ADAMTS5, and S0 is the residual amount of an uncleaved substrate without the addition of ADAMTS5.
The concentration of an inhibitor necessary for inhibiting 50% of the enzyme activity (IC50) was determined. IC50 is a mean of four measurements.
In the case of B1, the “inhibitory activity % 10 nM aptamer” value is reported as 2.9%. B2 was tested, and the “inhibitory activity % 10 nM aptamer” value was 46.3%. With B4 the “inhibitory activity % 10 nM aptamer” value was 14.8%. In the case of B5, the “inhibitory activity % 10 nM aptamer” value is reported as 20.2%. In the case of B6, the “inhibitory activity % 10 nM aptamer” value is reported as 2.9%. With B7 the “inhibitory activity % 10 nM aptamer” value was 12.3%. With B8 the “inhibitory activity % 10 nM aptamer” value was 14.5%. For B9, the “inhibitory activity % 10 nM aptamer” value was 56.9%. B10 was tested, and the “inhibitory activity % 10 nM aptamer” value was 15.5%.

Same assay, conditions: Table 7; 20 nM aptamer
For B3, the “inhibitory activity % 20 nM aptamer” value was 72.1%.

Same assay, conditions: Table 7; 30 nM aptamer
For B1, the “inhibitory activity % 30 nM aptamer” value was 93.5%. In the case of B2, the “inhibitory activity % 30 nM aptamer” value is reported as 93.6%. For B6, the “inhibitory activity % 30 nM aptamer” value was 90.4%. For B7, the “inhibitory activity % 30 nM aptamer” value was 88.2%. With B10 the “inhibitory activity % 30 nM aptamer” value was 111.1%.

Same assay, conditions: Table 8; 30 nM aptamer
In the case of B9, the “inhibitory activity % 30 nM aptamer” value is reported as 78.8%.

Reference: patent publication US11473089B2, “Aptamer for ADAMTS5 and use for aptamer for ADAMTS5” (RIBOMIC INC., priority 2017, dated 2022)
